T1: Zur (His6-Zur) (Sinorhizobium fredii CCBAU45436, UniProt C3MDK7 1-131)
T1 sequence: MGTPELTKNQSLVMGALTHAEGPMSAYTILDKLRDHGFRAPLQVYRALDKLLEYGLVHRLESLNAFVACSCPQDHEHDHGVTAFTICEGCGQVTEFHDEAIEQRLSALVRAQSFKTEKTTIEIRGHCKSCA

B1: c06450 Zur box probe (dsDNA)
DNA 1: CAGCTCCTTATAATGTTATAACGTAACGGCACTTGATA
DNA 2: TATCAAGTGCCGTTACGTTATAACATTATAAGGAGCTG
B2: znuA promoter Zur box probe (dsDNA)
DNA 1: GCGACTGCGTCGTGTAATGTTATTACATCAATTGCGTTATGCTATAACGTGTGCAATAGC
DNA 2: GCTATTGCACACGTTATAGCATAACGCAATTGATGTAATAACATTACACGACGCAGTCGC
B3: d65890 Zur box probe (dsDNA)
DNA 1: TGATCGACGTGTGTAATGATATAACATATCGCATAAGT
DNA 2: ACTTATGCGATATGTTATATCATTACACACGTCGATCA
B4: e68370 Zur box probe (dsDNA)
DNA 1: CAATCCCACGACGTAATGTTATAACATATCAGATAAGA
DNA 2: TCTTATCTGATATGTTATAACATTACGTCGTGGGATTG
B5: a42610 Zur box probe (dsDNA)
DNA 1: CAACATTCGCATGTTATGTTATAACATATCGCGTAATC
DNA 2: GATTACGCGATATGTTATAACATAACATGCGAATGTTG

Tests used:
Zur (His6-Zur) [1] = molecular target: T1, Zur (His6-Zur); test: EMSA; 200 uM ZnSO4; 2.64 uM Zur; 10 mM Tris pH 7.5, 50 mM KCl, 1 mM DTT, 1 ug poly(dI-dC), 200 uM ZnSO4, with or without 50 uM TPEN, ~50 fmol probe in 15 ul, 25 C 20 min; 5% native PAGE in TB at 4 C; settings: protein: recombinant; tags: N-terminal His6 (pET-28a(+), BamHI/HindIII); chain copies: 2; label: 5' biotin on both strands; blunt
Zur (His6-Zur) [2] = molecular target: T1, Zur (His6-Zur); test: EMSA; 200 uM ZnSO4; 0.33-2.64 uM Zur, oligomeric shift above 1.32 uM; 10 mM Tris pH 7.5, 50 mM KCl, 1 mM DTT, 1 ug poly(dI-dC), 200 uM ZnSO4, with or without 50 uM TPEN, ~50 fmol probe in 15 ul, 25 C 20 min; 5% native PAGE in TB at 4 C; settings: protein: recombinant; tags: N-terminal His6 (pET-28a(+), BamHI/HindIII); chain copies: 2; label: 5' biotin on both strands; blunt

Binder	binding result (Zur (His6-Zur) [1])	binding result (Zur (His6-Zur) [2])
B1	binds	
B2		binds
B3	binds	
B4	binds	
B5	binds	
